Test results: the nanobody polyreactivity screen of Harvey et al. (2022)

Test: yeast display, Sf9 membrane polyspecificity reagent, FACS + sequencing; frameworks hold sequencing errors
Procedure, shortened: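 Genes from sorted yeast were amplified by colony PCR, read by MiSeq 2 × 250 sequencing and filtered on CDR length. These cells carried a synthetic nanobody library in Saccharomyces cerevisiae BJ5465 and were sorted by FACS into low and high (top ~1%) gates on anti-HA and streptavidin fluorescence. Polyreactivity is labelled according to the gate of origin.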

Row | Sequence | polyreactivity (PSR sort gate)
1 | PVQLVESGGGLVQAGGSLRLSCSSSGRIFASNAMGWYRQPPGKDRELVAAIDQGGGSTYYADSVKGRFTISRDNAKITVYLQMNSLKPEDTAVYYCAADYITAYPRLYNYWGLGTQVTVSS | low polyreactivity
2 | QDHHVDSGGGLVQAGGILRLSCAASGSIIDYYPMGWYRQPPGKERELVARIRRRSSSTFYADSVKGRFTISRDNEKNTDYLQMNSLKPEDTAVYYCAADSYAWSTGGIFDYWGQGTQVTVSS | high polyreactivity
3 | QDHLVESGGGLVQAGGSLRLSCAASGFIFRGNAMGWYRQPPGKERELVAAISRRGGTTYYADCVKGRFTISRDNAKNTDYLQMNSLKPEDTAVYYCAAYSPLSSGMDSWGQGTQVTVSS | high polyreactivity
4 | QDHLVESGGGLVQAGGSLRLSCAASGSIFGLYAMGWYRQSPGKERELVAAISFSGDTYYADSVKGRFTISRDNAKNTVYLQMNSLKPEDTAVYYCAAEDWYEYDYWGQGTQVTVSS | high polyreactivity
5 | QDHLVESGGGLVQAGGSLRLSCAASGSIFYRYAMGWYRQAPWKERELVAAISRSGGTTYYADSVKGRFTISRDNAKNTVYLQMNSLKPEDTAVYYCAARVFHPYSTDPYYYWGQGTQVTVSS | high polyreactivity
6 | QDHLVESGGGLVQAGGSLRLSCAASGSTFGKNTMGWYRQAPGKERELVAAISRGVSTYYADSVKGSFTISRDNAKNTVYLQMNSLKPEDTAVYYCAAQEAYRWYGYYYWGQGTQVTVSS | high polyreactivity
7 | QDHLVESGGGLVQAGGSLRLTCAASGSIFISYAMGWYRQAPGKERELVAAISIRGTRTYYADSVKGRFTISRDNAKNTVSLQMNSLKPEDTAVYFCAADASYTEGMDYWGQGTQVTVSS | high polyreactivity
8 | QDHLVESGRGLVQAGGSLRLSCAASGSIFPSYAMVWNRQAPGKERDLVDSITTSGGSTYYADSVKGRFTISRDNAKNTVYLQMNSLKPEDTAVYYCNARRYYYSWGREGGYWGQGTQVTVSS | low polyreactivity
9 | QDKLVESGGALVQAGGSLRISCAASGNIFSYYAMGWNRQAPGKEMDLVAAISRRGTNTYYADSVKGRFTISRDKAKNTVYLQMNSLKPEDTAVYYCASYGPYQSSYHYDYWGQGTQVTVSS | high polyreactivity
10 | QDLHVESGGGVVQAGGSLRVSCAASGRTFISYAMGWSRQAPGKERELVATITRDGRTNYADSVKGRFTFSRDNAKNTVYLQMNSLNAEDTAVYYCNADSRYRYDYWGQGSQVTVSS | low polyreactivity
11 | QDLLVESGGGLVQAGGRLRLSCAASGSTFRYYAMGWYRQAPGKERELVAAITNSCGSTNYADSVKGRFTISRDNAKNTVYLQMNSLKPEDTAVYYCNANTWRYFTMGYWGHGTQVTVSS | high polyreactivity
12 | QDNLVESGGGLVQAGGSLRLICAASGSTNRSNAMGWYRQAPGKERELVAANSRTGGRTYYADSVKGRFTISRDNAKNTVYLQMKCLNQEDTAVYYCARADKRLEYSENYYWGQGTQVTVSS | high polyreactivity
13 | QDQHVESGGGLVQAGGSLRLICSASGSTNGLGWYRQAPGKERELVAVITWDTGGTYYADSVKGRFTISRDNAKNTVYLQMNSLKPEDTAVYYCAKDVGHGAGNLMGYWGQGTQVTVSS | low polyreactivity
14 | QDQHVESGGGLVQAGGSLRLRCSASVRTYFDYDMGRYRQAPGKERELVAAISQSGGSTYYADSVKGRFTISRDNAKYTFYLVMNSLKPEDTGVYECNAYYGYGHRIYDYWGQGTQVTVSS | high polyreactivity
15 | QDQHVESGGGLVQAGGSLRLSCAASGFIFSQYAMGWYRQAPGKERELVAAISSGSTYADSVKGRFTISRDNAKNTVYLQMNSLKPEDTAVYYCAVDYHQAWPSADYWFEYDYWGQGTQVTVSS | low polyreactivity
16 | QDQHVESGGGLVQAGGSLRLSCAASGSIFDVYTMGWYRQAPGKERELVAAINTGGGSTYYADSVKGRFTISRDKAKNTVYLQMNSLKPEDTAVYYCAASVYHYGPLYYWGQGTQVTVSS | low polyreactivity
17 | QDQHVESGGGLVQAGGSLRLSCAASGSIFPWYTMGWYRQAPGKERELVASITKSGARTYYADSVKGRFTISRDNAKNTVYLEITSLKPEDTAVYYCAASLWQRAKVRYQYWGQGPQVTVSS | high polyreactivity
18 | QDQHVESGGGLVQAGGSLRLSCAAYGSTFLYYAMGWFRQAPGKERELVAAITSGGSTYYADSVKGRFTISRDNPKNTVFLQMNRLKPEDTAVYYCTVFGYGYWGQGTQVTVSS | high polyreactivity
19 | QDQHVESGGGLVQAGGSLRLSFAASGRTFISYTKGWYRPAPGKERELVAAINFSGGITYYADSVKGRFTISHDNAMNTVYLQMNSLKPVDTAVYYCAADWRTRYDYWGQGTQVTVSS | low polyreactivity
20 | QDQHVESGGGLVQAGGSLRLSGAASGGTLWVNTMGWYRPAPGKERELVAAISRRGGSTYYADSVKGRFTISRDNAKNTVYLQMNSLKPEDTAVYYCAKGYSSHYWWAYDSWGQGTLVTVSS | high polyreactivity
21 | QDQHVESGGGLVQAGGSLRLSGADSGSIFLLYAMGCYRQAPGKERELVAAISTRDGSTYYADSVKGRFTISRDNAKNTVYLQMNSLKPEDTAVYYCATLYSYNYWGQGTQVTVSS | high polyreactivity
22 | QDQHVESVGGLVQAGGSLRLSCAASGRTFYRYAMGWSRQAPGKEREFVAAISHGGSNTRYADSVKGRFTISRDNAKNTVYLQMKSLKPEDTAVYYCAARAYQHYNWGQGTQVTVSS | high polyreactivity

Row | Sequence | polyreactivity (PSR sort gate)
23 | QDQHVESVGGLVQAGGSLRLSIAASVLILWQNAMGWYRQAPGKERELVARITWSGVSTDYADSVKGRFTISRDNAKNTVYFQMNSLKPEDTADYYWAADYNRYSYNYARYSLGQNDYWGQGTQVTVSS | low polyreactivity
24 | QDQIVESGGGLVQAGGSLRLSCAASGSTFQANAMGWYRQAPGKERELVAAISRSGGSTYYADSVKGRFTISRDNAKNTVYLQMNSLKPEDTAVFYCAADYEYSGYGYWGQGTQVTVSS | high polyreactivity
25 | QDQIVESGGGLVQAGGSLRLSCASYGSTFDRYAMGWYRQAQGKERELVAVITQSGSSTYYADSVKGRFTISRDNAKNTVYLQMKSLKPEDTAVYYCAARYQGSRGQEYYYWGQGTQVTVSS | high polyreactivity
26 | QDQIVESGGGLVQAGGSLRLSCSATGRTYVIYAMGWYRQAHGKERELVASIRRGGSTSYADSVKGRFTISRDNAKNTVYLQMKSLKPEDTAVYYCAAGAHRASSSGNGYWGQGSQVTVSS | high polyreactivity
27 | QDQLEESGGGLVQAGGSLRLICAAYGSTFVLYDMGWYRQEPGKERELVADISYSGGSTYYEDSVKGRFTISRDNAKYTVYLLMKRLIPEDTAFYYCIAGVLVLLYAYLPSELEYWGQGTQVTVSS | low polyreactivity
28 | QDQLEESGGGLVQAGGSLRLSCAASGRMFNSYAMGWYRQAPGKERELVAAISFSGGSTYYADSVKGRFTISRDNAKNTVYLQMNSLKPEDTAVYYCNAVTAVDTAHDYWGQGTQVTVSS | high polyreactivity
29 | QDQLEESGGGLVQAGGSLRLSCAASGRTFFHYAMGWYRQAPGKERELVAGISSGGRTTYADSVKGRFTISRDNAKNTVYLQMISLKPEDTAVYYCAASYIVWLTRGAPRKRFDYWGQGTQVTVSS | high polyreactivity
30 | QDQLEESVGGLVQAGGSLRLSCAASGSTFSYYAMGWYRQATGKERELVAAISTLGSSTYYADSVKGRFTISRDNAKNTVNLQMNSLKPEDTAVYYCAVDQYKYDWFYDYYGYTYVYWGQGTQVTVSS | high polyreactivity
31 | QDQLGESGGGLVQAGGSLRLTCAASGFIFSNNAMGWYRPSPGKERELVAAISGSGVSTYYADSVKGRFTISRDNAKNTVYLQMNSLKPEDTAVYYCAASASLRHDYWGQGTQVTVSS | high polyreactivity
32 | QDQLLESGGGLVQAGGSLRLSCAASGSTFGANAMGWYRQAPGKEREFVAAISRSGLRTYYADSVKGRFTNSRDYAKNTVYIQMNSLKPEDTAVYYCSADCYWWTYTRYDYWGQGSQVTVSS | low polyreactivity
33 | QDQLVDSGGGLVQAGGNLRLSCAASGRTFPPYSMGWDRQAPGKERELVAAISGSGASTYYADSEKGRFTISRDNAKNTVYLQMNCLKPEDSAVYYCARYRGYWGRYYGVDYGYWGQGTQVTVSS | high polyreactivity
34 | QDQLVDSGGGLVQAGGSLRLICAASGRTYRKYAMGWYRQAPGKERELVADISWSGGSTYYANSVKGRFTISRDIAKNTVYLQMNSLKPEDTAVYYCAAVPVHTGSLYWGFTTGYDYWGQGTQVTVSS | low polyreactivity
35 | QDQLVDSGGGLVQAGGSLRLSCAASGRSFRNNPMGWYRQAPGKERELVAAITSSGASTYYADSVKGRFTISRDNAKNTVYLQMNSLKPEDTAVYSCAAATVRQFRSSLDYWGQGTQVTVSS | high polyreactivity
36 | QDQLVDSGGGLVQAGGSLRLSCAASGSIQSRYAMGWYRQAPGKERELVAAISRSTDSTYYADSVKGRFTISRDNAKNTVYLKMNSLKPEDTAGYYCNAVYRSSYQKGSMDYWGQGTQVTVSS | high polyreactivity
37 | QDQLVDSGGGLVQAGGSLRLSCAASGTFFMGWYRQAPGKERELVAGISIYDGSTYYADSVKGRFTISRDNAKNTVYLQMNRLKPEDTAVYYCAAEFYPTTGFDYWGQGTQVTVSS | low polyreactivity
38 | QDQLVDSGGGLVQAGGSLRLSCAASVRTFDRYAMGWYRQAPGKVRELVAAISGRGGSTYYADSVKGRFTISRDNAKNTVYLQMNSLKPEDTAVYYCAARGSLWGAPSDYYYCGQGTQVTVSS | high polyreactivity
39 | QDQLVDSGGGLVQAGGSLSLSCAASGRTSGRYAMGWYRQAPGKERELVAGITSSGGSTYYADSVKGRFTISRDNAKNTVYLQMNSLKPEDTAVYYCAKVWGAKGKTYRMYSWGKGTQVTVSS | high polyreactivity
40 | QDQLVDSGVGLVQAGGSLRLSCAASGLIFGRNVMGWYRQAPGKERELVAAISWSGGRTYYADSVKGRFTISRDNAKNTVYLQMNSLKPEDTAVDYCATDRSTRTYRSPYDYWGQGTQVTVSS | high polyreactivity
41 | QDQLVEACGGLVQAGGSLRLSCASSRSIIRGYAMGWYIQAHGKERELVAVIRRTSVSTYYADSVKGRFTISRDNAKNTVYLQMKCLKPEDTAVYYCNTLRLSSYPYYGYLGQGTQVTVSS | high polyreactivity
42 | QDQLVEAGGGLVQAGGSLRKSCAASGRIFNTNAMGWNRQAPGKERELVAGITDSGDSTYYADSVKGRFTISRDNAKNTVYLQMNRLKPEDSAVYYCATDPASPYIYDFWGQGTQVTVSS | low polyreactivity
43 | QDQLVESAGGLVQAGGSLRLSCAASASIFVSYAMGWYRQAPGKERELVAAITRSGGSTYYSDSVKGRFTISRDNAKYTVYLQMNSLKPDDTAVYYCAARSYLGAYRRFYWGQGTQVTVSS | high polyreactivity
